Earlier results in patent US10131637B2, “Anti-PCSK9 compounds and methods for the treatment and/or prevention of cardiovascular diseases” (Shifa Biomedical Corporation, priority 2013, dated 2018).

Target: T1, PCSK9 (Homo sapiens, UniProt Q8NBP7)
T1 construct: slashed LDL levels by more than 60% in clinical trial; host or cells: patients in a clinical trial (endogenous circulating PCSK9)
Conditions: single injection, clinical trial

## REGN727: Regeneron/Sanofi monoclonal antibody blocking PCSK9
  reduction of LDL levels: more than 60%
